Measurements published in patent publication US20130018172A1, “Metal Abstraction Peptide and Uses Thereof” (Echogen, Inc., priority 2011, published 2013).
Residue numbers refer to the chain shown, from its start. Numbers in names are those of the source.

What was measured:
[1] = Metal displacement from Ni-purified PRL-1 (EDTA exchange, guanidinium hydrochloride and heat); assay type: physicochemical
Method: UV-Vis absorption spectra were used to measure the concentration of the PRL-1 protein. The concentrations of purified PRL-1 analogs were measured at 280 nm and calculated using an extinction coefficient of 19420 M^−1 cm^−1. Because of possible metal-protein absorption interferences in the high 200 nm region, the validity of the UV-Vis quantification method was confirmed by the Bradford method. Spectra of PRL-1 analogs at concentrations of 10, 5, 2.5, and 1.25 mg/mL were collected on a Cary 100 UV-Vis spectrophotometer from 800 to 200 nm. […] The resulting spectra were resolved and peak positions were evaluated using GRAMS/AI 7.00 software. Three methods were aimed at metal displacement. In the first, PRL-1-WT (e.g., wild type) samples were reduced using 20 mM β-mercaptoethanol (BME), and imidazole was added to a concentration of 10 mM. For 0.5 mM protein samples, this corresponds to 400-fold solution excess of BME to compete with the two C-terminal cysteine thiols and a 200-fold solution excess of imidazole to compete with the single C-terminal histidine imidazole side chain. New baselines were taken and the spectra recalculated. In the second method, baselines were recalculated for buffer containing 100 μM EDTA, and the spectrum for the PRL-1-WT sample that was exchanged ten million fold in 100 μM EDTA was recorded. Finally, 10 mg/mL protein samples were denatured in 5.6 M guanidinium hydrochloride and heated to 90° C., new baselines were taken, and the spectra were collected at 0, 2, 4 and 6 hrs.
Ni binding in PRL-1 was not affected by reduction of the disulfide bond at PRL-1's active site. […] Subtraction of the reduced spectrum from the oxidized confirms that there was no significant difference in metal coordination between the reduced and oxidized WT samples. To examine whether a small contribution from a His is made, additional imidazole was added to the solution to increase the signal strength of a transient association. […] Additionally, no spectral change was observed when the Ni-purified sample was reduced in the presence of imidazole. […]

[2] = ICP-MS of metal bound to purified PRL-1 (Zn); assay type: binding
Method: (§1) ICP-MS was used to characterize the bound metal. Purified protein samples were digested in concentrated nitric acid in PFA microcentrifuge tubes (Savillex, #s 7240, 7241) at 68±1° C. for 16.5±0.7 hours. Based on protein quantification prior to digestion, the sample was then diluted to 1.5 μM in 20 mM ammonium bicarbonate, pH 8.2, filtered through a 0.2 μm nylon filter, and injected into a VG Elemental VGII+XS Inductively-Coupled Plasma-Mass Spectrometer fitted with a microconcentric nebulizer. A minimum of two separately prepared samples were analyzed for each protein variant. Each sample was scanned twice and standards were run before, between, and after each sample scan. Drift was monitored during washes between scans of both sample and standard injections.
To confirm that the chromophore arises from protein abstraction of the metal from the charged IMAC matrix, samples were subjected to ICP-MS for semi-quantitative analysis. […] On average 500 μM Ni-purified protein samples were digested in nitric acid for 16 h at 70° C. were determined to contain approximately 180 μM Ni, yielding a Ni to protein stoichiometry of 1:2.7+/−0.7. Zn was also detected in the Ni-purified samples at approximately 60 μM. […] Because ICP-MS analysis is conducted in a flow of Ar and the most abundant isotope of Ar has the same mass as Ca, Ca binding cannot be determined from the primary mass signal. […]

[3] = ICP-MS of metal bound to purified PRL-1 variants (Ni); assay type: binding; conditions: for Ni bound, ICP-MS: PRL-1 variants purified on Ni-IMAC, analyzed in parallel
Method: Because the histidine mutant retained tight binding, mutations at C170 and/or C171 were made.
as §1
To confirm that the chromophore arises from protein abstraction of the metal from the charged IMAC matrix, samples were subjected to ICP-MS for semi-quantitative analysis. As extensive washing is used to remove background metals, the values obtained from this method inherently underestimate the amount of metal bound, but can be used to assess the relative affinity of different metals for the protein. Additionally, to identify an endogenous metal ligand that may have been bound to PRL-1 during expression in the cells, ICP-MS was used to look for the presence of a transition metal from the first two rows in the periodic table as well as other common biologically relevant metals. […] On average 500 μM Ni-purified protein samples were digested in nitric acid for 16 h at 70° C. were determined to contain approximately 180 μM Ni, yielding a Ni to protein stoichiometry of 1:2.7+/−0.7. Zn was also detected in the Ni-purified samples at approximately 60 μM. […] Because ICP-MS analysis is conducted in a flow of Ar and the most abundant isotope of Ar has the same mass as Ca, Ca binding cannot be determined from the primary mass signal. Nonetheless, because a much higher amount of Ca was present in the cell culture media compared to Zn and yet the ICP-MS signal corresponds largely to zinc, the protein is unlikely to bind calcium.

[4] = Solubility of PRL-1 on loss of metal; assay type: physicochemical; conditions: metal-free protein
[5] = UV-Vis absorption spectroscopy of Ni coordination by PRL-1 variants; assay type: binding; conditions: relative to wild-type, Ni-purified
Method: UV-Vis absorption spectra were used to measure the concentration of the PRL-1 protein. The concentrations of purified PRL-1 analogs were measured at 280 nm and calculated using an extinction coefficient of 19420 M^−1 cm^−1. Because of possible metal-protein absorption interferences in the high 200 nm region, the validity of the UV-Vis quantification method was confirmed by the Bradford method. Spectra of PRL-1 analogs at concentrations of 10, 5, 2.5, and 1.25 mg/mL were collected on a Cary 100 UV-Vis spectrophotometer from 800 to 200 nm. […] The resulting spectra were resolved and peak positions were evaluated using GRAMS/AI 7.00 software. Three methods were aimed at metal displacement. […] In the second method, baselines were recalculated for buffer containing 100 μM EDTA, and the spectrum for the PRL-1-WT sample that was exchanged ten million fold in 100 μM EDTA was recorded. […]
Accordingly, characterization of metal coordination by PRL-1 was determined with UV-Vis absorption spectroscopy. The metal coordination geometry employed by PRL-1 and its mutants was analyzed using UV-Vis absorption spectroscopy at 800-200 nm. Absorption spectra of PRL-1 produced peaks at 280 and 220 nm, which arise from aromatic and peptide bonds within the protein and correspond well with the concentration determined using the Bradford assay. […]

B1: PRL-1: recombinant human PRL-1 (phosphatase of regenerating liver) wild type, C-terminal NCC motif (protein, UniProt Q93096 1-170, looked up)
Protein tyrosine phosphatase …: MARMNRPAPVEVTYKNMRFLITHNPTNATLNKFIEELKKYGVTTIVRVCEATYDTTLVEKEGIHVLDWPFDDGAPPSNQIVDDWLSLVKIKFREEPGCCIAVHCVAGLGRAPVLVALALIEGGMKYEDAVQFIRQKRRGAFNSKQLLYLEKYRPKMRLRFKDSNGHRNNC
loss of peaks at 318, 421 and 526 nm (Ni release) ([1]; 5.6 M guanidinium hydrochloride at 90° C.): only gradually disappeared over 6 hrs
reversibility of Ni binding ([1]; pH 7.4): irreversible
effect of EDTA exchange on the absorption spectrum ([1]; ten million-fold exchange into buffer containing 100 μM EDTA): little effect on the spectrum
Zn detected in Ni-purified samples, ICP-MS ([2]; Ni-IMAC purified): approximately 60 μM
Zn content after Zn-IMAC purification, ICP-MS ([2]; Zn-IMAC purified): 270 µM
Ni bound, ICP-MS [3]: approximately 120 μM
Ni level in Zn-IMAC purified protein, ICP-MS ([3]; Zn-IMAC purified): only background levels
Ni content of Ni-purified protein samples, ICP-MS ([3]; on average 500 μM Ni-purified protein, digested in nitric acid 16 h at 70° C., semi-quantitative): approximately 180 μM

B2: Apo PRL-1: PRL-1 without bound metal (protein, UniProt Q93096 1-170, looked up)
Protein tyrosine phosphatase …: B1 Protein tyrosine phosphatase …
modifications: metal-free
solubility [4]: poorly soluble

B3: PRL-1-H166A: PRL-1 mutant, histidine 166 of the NGH motif replaced by alanine (protein, UniProt Q93096 1-170, looked up, variant H166A)
Protein tyrosine phosphatase …: B1 Protein tyrosine phosphatase … with H166A
decrease in signal measured by absorption spectroscopy [5]: 20%
Ni bound, ICP-MS [3]: ~60 µM

B4: PRL-1-C170S: PRL-1 mutant, cysteine 170 replaced by serine (protein, UniProt Q93096 1-170, looked up, variant C170S)
Protein tyrosine phosphatase …: B1 Protein tyrosine phosphatase … with C170S
Ni bound, ICP-MS [3]: No Ni was detected
